# Measured values taken from US20230250557A1 (published 2023).
# B1: 3-7E (designed binder)
# chain: GSHMVSGKIVVIGSSTGGPRSLDMIIPNLPKNFPAPIVVVQHGYYWGSWGYEGTKSLAQRLDSTSELTVKEAEDGEEVKPGFVYIAPGDFHLGLKAQNGKVFFFLDKSGRVVDGWDYDGVRPAVDFTLDKAAEIYKEKTIAVILTGGWDTGSELGGDGTKGAFKVKFYGGTVIAEDKETSVVFGMPKSVIEEGYADYVLPAYKIPEKLIELV
# notes: CheBc scaffold clone from modified pQE-80L in E. coli, purified on cobalt resin, detected with anti-FLAG
# B2: 4-7D (designed binder)
# chain: GSHMVSGKIVVIGSSTGGPRSLDMIIPNLPKNFPAPIVVVQHGHDWSGSSGWGTKSLAQRLDSTSELTVKEAEDGEEVKPGFVYIAPGDFHLGLKAQNGKVFFFLDKSGWVSWGWTNNGVRPAVDFTLDKAAEIYKEKTIAVILTGGRYEGVLLGGDGTKGAFKVKFYGGTVIAEDKETSVVFGMPKSVIEEGYADYVLPAYKIPEKLIELV
# notes: as for B1
# B3: 3-8A (designed binder)
# chain: GSHMVSGKIVVIGSSTGGPRSLDMIIPNLPKNFPAPIVVVQHGSWVDGSWTWGTKSLAQRLDSTSELTVKEAEDGEEVKPGFVYIAPGDFHLGLKAQNGKVFFFLDKSGWWNGGYWVTGVRPAVDFTLDKAAEIYKEKTIAVILTGGVNLGLYNGGDGTKGAFKVKFYGGTVIAEDKETSVVFGMPKSVIEEGYADYVLPAYKIPEKLIELV
# notes: as for B1
# B4: 1-12E (designed binder)
# chain: GSHMVSGKIVVIGSSTGGPRSLDMIIPNLPKNFPAPIVVVQHGDGWYGGGAVGTKSLAQRLDSTSELTVKEAEDGEEVKPGFVYIAPGDFHLGLKAQNGKVFFFLDKSGGSYTGEWTWGVRPAVDFTLDKAAEIYKEKTIAVILTGGARYGDLRGGDGTKGAFKVKFYGGTVIAEDKETSVVFGMPKSVIEEGYADYVLPAYKIPEKLIELV
# notes: as for B1
# B5: 1-1B (designed binder)
# chain: GSHMVSGKIVVIGSSTGGPRSLDMIIPNLPKNFPAPIVVVQHGEGWYGGGAVGTKSLAQRLDSTSELTVKEAEDGEEVKPGFVYIAPGDFHLGLKAQNGKVFFFLDKSGRGLRGGWSWGVRPAVDFTLDKAAEIYKEKTIAVILTGGAATGSSNGGDGTKGAFKVKFYGGTVIAEDKETSVVFGMPKSVIEEGYADYVLPAYKIPEKLIELV
# notes: as for B1
# B6: 1-12C (designed binder)
# chain: GSHMVSGKIVVIGSSTGGPRSLDMIIPNLPKNFPAPIVVVQHGWALNGRYTLGTKSLAQRLDSTSELTVKEAEDGEEVKPGFVYIAPGDFHLGLKAQNGKVFFFLDKSGARDRGREWYGVRPAVDFTLDKAAEIYKEKTIAVILTGGYWEGDYAGGDGTKGAFKVKFYGGTVIAEDKETSVVFGMPKSVIEEGYADYVLPAYKIPEKLIELV
# notes: as for B1
# Target: T1, Biotinylated human HER2 antigen comprising a portion of the HER2 extracellular domain (Acro Biosystems) (human, UniProt P04626 23-652, biotinylated (site not stated))
# T1 construct: extracellular domain; The ELISA text says only 'antigens' were coated; also called HER2 target
# Experiment: ELISA, antigen coated at 1 ug/mL, purified scaffold titrated, anti-FLAG-HRP detection
# Method: (§1) Affinity of binding of individual scaffolds of the invention was estimated by ELISA. Antigens were dissolved in PBS to 1 μg/mL and 100 μl coated onto the surface of each well of a 96 well MaxiSorp Plate (Nunc) at 4° C. overnight. The next day, the wells of the MaxiSorp plate were washed with PBST buffer (PBS containing 0.05% Tween-20) and the wells blocked with 400 μl per well of 5% (w/v) skim milk powder in PBST for 2 hours. This blocking buffer was then discarded and the wells of the plate washed with PBST. […] The diluted target binding scaffold proteins were then transferred to the antigen coated MaxiSorp plate and allowed to bind to the immobilized blocked antigens for 2 hours at room temperature with gentle shaking. Following this, the diluted target binding scaffold protein solution was discarded and the wells of the MaxiSorp plate were washed 4 times with PBST. Then, 100 μl of a 1/4000 diluted solution of anti-FLAG M2 HRP conjugated antibody (Sigma) in PBST containing 2.5% (w/v) skim milk was added to each well and allowed to bind for 1 hour. This was then discarded and the plate washed 4 times with PBST. Then 100 μl of ELISA POD Substrate TMB Kit (HYPER) detection reagent (Nacalai Tesque, Japan) was added per well and the color development reaction stopped by addition of 100 μl of 1M phosphoric acid. Absorbance of each well was read at 450 nm wavelength. The EC₅₀ of binding was calculated from four parameter logistic plots of the measured absorbance values (FIGS. 17A-17B).
row,Binder,EC50
1,B1,22 nM
2,B2,65 nM
3,B3,4 nM

# Target: T2, Biotinylated human PD-L1 antigen comprising a human IgG1 Fc domain (Acro Biosystems) (human, UniProt Q9NZQ7 19-238, biotinylated (site not stated))
# T2 construct: The ELISA text says only 'antigens' were coated at 1 ug/mL; also called PD-L1 target; not shown: human IgG1 Fc domain
# Experiment: as above
# Method: as §1
# T2 sequence (Q9NZQ7 19-238 limits assumed): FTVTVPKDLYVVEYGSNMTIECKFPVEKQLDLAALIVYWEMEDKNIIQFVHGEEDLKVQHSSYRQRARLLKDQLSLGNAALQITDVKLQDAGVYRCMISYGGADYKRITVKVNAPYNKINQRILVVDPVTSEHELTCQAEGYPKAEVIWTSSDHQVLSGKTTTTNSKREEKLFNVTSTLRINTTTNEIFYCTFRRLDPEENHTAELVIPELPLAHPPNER
row,Binder,EC50
1,B4,165 nM
2,B5,108 nM
3,B6,91 nM
